Two substances from paper doi:10.1101/2020.12.07.415216 can be followed below.

In test [1] the target is SARS-CoV RBD homotrimer (RBD appended onto a cystine-stabilized, hyperglycosylated GCN4 trimerization tag) (SARS-CoV) (UniProt P59594). Description: SDS-PAGE under non-reducing conditions.
The target of test [2] is WIV1-CoV RBD homotrimer (RBD appended onto a cystine-stabilized, hyperglycosylated GCN4 trimerization tag) (WIV1-CoV). Briefly: SDS-PAGE under non-reducing conditions.

Take “SARS-CoV RBD homotrimer (RBD appended onto a cystine-stabilized, hyperglycosylated GCN4 trimerization tag) (from UniProt P59594)”: the stoichiometry N in test [1] was 3.

“WIV1-CoV RBD homotrimer (RBD appended onto a cystine-stabilized, hyperglycosylated GCN4 trimerization tag)” gave a stoichiometry N in test [2] of 3.

The stoichiometry N is the number of molecules, sites or subunits per partner or assembly.
